Source: patent US20150322128A1 (Sanofi, published 2015)
Like-named read-outs stand apart in the source and are kept apart here. Square brackets hold non-standard residues; d marks the D form. Ends that are not written are not given here. Aib = CC(C)(N)C(=O)O

T1: human GIP receptor (human, UniProt P48546 22-466)
T1 sequence (looked up): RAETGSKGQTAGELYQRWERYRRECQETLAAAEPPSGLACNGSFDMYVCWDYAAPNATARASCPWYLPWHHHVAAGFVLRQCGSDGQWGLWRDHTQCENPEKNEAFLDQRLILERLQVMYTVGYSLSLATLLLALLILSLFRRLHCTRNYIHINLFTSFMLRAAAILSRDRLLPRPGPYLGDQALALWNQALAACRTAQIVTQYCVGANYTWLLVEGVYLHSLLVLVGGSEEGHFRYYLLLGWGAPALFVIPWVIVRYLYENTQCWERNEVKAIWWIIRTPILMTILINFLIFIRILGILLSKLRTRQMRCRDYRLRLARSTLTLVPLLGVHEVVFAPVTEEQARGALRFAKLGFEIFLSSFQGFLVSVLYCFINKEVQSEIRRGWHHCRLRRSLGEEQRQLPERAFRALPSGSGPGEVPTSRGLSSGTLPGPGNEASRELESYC


Experiments:
Assay in all cases: cell-based or functional assay
[1] = biological target: T2, human GLP-1 receptor (human, UniProt P43220 24-463)
[2] = biological target: T1, human GIP receptor
[3] = biological target: T3, human glucagon receptor (human, UniProt P47871 26-477)
T3 sequence (P47871 26-477): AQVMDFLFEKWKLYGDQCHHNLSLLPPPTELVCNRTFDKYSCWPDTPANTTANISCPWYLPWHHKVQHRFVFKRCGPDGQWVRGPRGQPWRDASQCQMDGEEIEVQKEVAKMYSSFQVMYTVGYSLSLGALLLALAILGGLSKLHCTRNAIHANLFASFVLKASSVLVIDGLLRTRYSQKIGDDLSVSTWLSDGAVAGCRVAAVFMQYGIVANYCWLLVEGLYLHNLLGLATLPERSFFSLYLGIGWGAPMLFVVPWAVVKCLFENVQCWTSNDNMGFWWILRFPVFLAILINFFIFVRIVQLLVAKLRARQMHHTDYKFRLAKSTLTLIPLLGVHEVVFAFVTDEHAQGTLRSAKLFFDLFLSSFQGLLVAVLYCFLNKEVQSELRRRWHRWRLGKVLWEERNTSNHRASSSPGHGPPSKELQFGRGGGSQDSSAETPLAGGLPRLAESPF

[4] = biological target: T2, human GLP-1 receptor; remark: listed apart in the source
[5] = biological target: T1, human GIP receptor; remark: listed apart in the source
[6] = biological target: T3, human glucagon receptor; remark: listed apart in the source
[7] = biological target: T2, human GLP-1 receptor; remark: listed apart in the source
[8] = biological target: T1, human GIP receptor; remark: listed apart in the source
[9] = biological target: T3, human glucagon receptor; remark: listed apart in the source

Binder	EC50 hGLP-1R [1] [pM]	EC50 hGIP-1 [2] [nM]	EC50 hGlucagon-R [3] [pM]	EC50 hGLP-1R [4] [pM]	EC50 hGIP-1 [5] [pM]	EC50 hGlucagon-R [6] [pM]	EC50 hGLP-1R [7] [pM]	EC50 hGIP-R [8] [nM]	EC50 hGlucagon-R [9] [pM]
H[dS]QGTFTSDLSKQLDEEAARLFIEWL[Aib]AGGPSSGAPPPS-NH2 (N-terminus assumed; SMILES CC[C@H](C)[C@H](NC(=O)[C@H](Cc1ccccc1)NC(=O)[C@H](CC(C)C)NC(=O)[C@H](CCCNC(=N)N)NC(=O)[C@H](C)NC(=O)[C@H](C)NC(=O)[C@H](CCC(=O)O)NC(=O)[C@H](CCC(=O)O)NC(=O)[C@H](CC(=O)O)NC(=O)[C@H](CC(C)C)NC(=O)[C@H](CCC(N)=O)NC(=O)[C@H](CCCCN)NC(=O)[C@H](CO)NC(=O)[C@H](CC(C)C)NC(=O)[C@H](CC(=O)O)NC(=O)[C@H](CO)NC(=O)[C@@H](NC(=O)[C@H](Cc1ccccc1)NC(=O)[C@@H](NC(=O)CNC(=O)[C@H](CCC(N)=O)NC(=O)[C@@H](CO)NC(=O)[C@@H](N)Cc1c[nH]cn1)[C@@H](C)O)[C@@H](C)O)C(=O)N[C@@H](CCC(=O)O)C(=O)N[C@@H](Cc1c[nH]c2ccccc12)C(=O)N[C@@H](CC(C)C)C(=O)NC(C)(C)C(=O)N[C@@H](C)C(=O)NCC(=O)NCC(=O)N1CCC[C@H]1C(=O)N[C@@H](CO)C(=O)N[C@@H](CO)C(=O)NCC(=O)N[C@@H](C)C(=O)N1CCC[C@H]1C(=O)N1CCC[C@H]1C(=O)N1CCC[C@H]1C(=O)N[C@@H](CO)C(N)=O) [SEQ ID NO: 28]	3.8	343	1040						
H[dS]QGTFTSDLSKQLDEEAARLFIEWLKAGGPSSGAPPPS-NH2 [SEQ ID NO: 34]	0.8	26	338						
HXQGTFTSDLSKQKDEEAARLFIEWLKAGGPSSGAPPPS (D-Ser at 2; Lys 14 side chain K(γE-γE-x53) = (S)-4-Carboxy-4-((S)-4-carboxy-4-hexadecanoylamino-butyrylamino)-butyryl-; C-terminal amide) [SEQ ID NO: 32]	1.9	0.565	5.5	1.9	565	5.5			
HXQGTFTSDLSKQKDEEAARLFIEWLXAGGPSSGAPPPS (D-Ser at 2; Lys 14 side chain K(γE-γE-x53) = (S)-4-Carboxy-4-((S)-4-carboxy-4-hexadecanoylamino-butyrylamino)-butyryl-; Aib at 27; C-terminal amide) [SEQ ID NO: 9]	1.8	3.6	11.8	1.8	3600	11.8	1.8	3.6	11.8
HXQGTFTSDLSKQKDEEAARLFIEWLXAGGPSSGAPPPS (D-Ser at 2; Lys 14 side chain K(γE-x53) = (S)-4-Carboxy-4-hexadecanoylamino-butyryl-; Aib at 27; C-terminal amide) [SEQ ID NO: 14]	2.1	5.36	24.7				2.1	5.36	24.7
HXQGTFTSDLSKQKDEEAARLFIEWLXAGGPSSGAPPPS (D-Ser at 2; Lys 14 side chain K(γE-x70) = (S)-4-Carboxy-4-octadecanoylamino-butyryl-; Aib at 27; C-terminal amide) [SEQ ID NO: 13]	2.7	2.54	6.8				2.7	2.54	6.8
